Numbering of substitutions follows the chain as printed. Names and notes keep the numbering of the source.
B1: MalT (wild type), N-terminally His-tagged (natural protein, Escherichia coli, UniProt P06993 1-901, looked up)
chain: MLIPSKLSRPVRLDHTVVRERLLAKLSGANNFRLALITSPAGYGKTTLISQWAAGKNDIGWYSLDEGDNQQERFASYLIAAVQQATNGHCAICETMAQKRQYASLTSLFAQLFIELAEWHSPLYLVIDDYHLITNPVIHESMRFFIRHQPENLTLVVLSRNLPQLGIANLRVRDQLLEIGSQQLAFTHQEAKQFFDCRLSSPIEAAESSRICDDVSGWATALQLIALSARQNTHSAHKSARRLAGINASHLSDYLVDEVLDNVDLATRHFLLKSAILRSMNDALITRVTGEENGQMRLEEIERQGLFLQRMDDTGEWFCYHPLFGNFLRQRCQWELAAELPEIHRAAAESWMAQGFPSEAIHHALAAGDALMLRDILLNHAWSLFNHSELSLLEESLKALPWDSLLENPQLVLLQAWLMQSQHRYGEVNTLLARAEHEIKDIREDTMHAEFNALRAQVAINDGNPDEAERLAKLALEELPPGWFYSRIVATSVLGEVLHCKGELTRSLALMQQTEQMARQHDVWHYALWSLIQQSEILFAQGFLQTAWETQEKAFQLINEQHLEQLPMHEFLVRIRAQLLWAWARLDEAEASARSGIEVLSSYQPQQQLQCLAMLIQCSLARGDLDNARSQLNRLENLLGNGKYHSDWISNANKVRVIYWQMTGDKAAAANWLRHTAKPEFANNHFLQGQWRNIARAQILLGEFEPAEIVLEELNENARSLRLMSDLNRNLLLLNQLYWQAGRKSDAQRVLLDALKLANRTGFISHFVIEGEAMAQQLRQLIQLNTLPELEQHRAQRILREINQHHRHKFAHFDENFVERLLNHPEVPELIRTSPLTQREWQVLGLIYSGYSNEQIAGELEVAATTIKTHIRNLYQKLGVAHRQDAVQHAQQLLKMMGYGV
notes: Purified with 0.1 mM ADP or 0.4 mM ATP; the elution at 103 kDa fits the whole protein; In PDB 8BOB only residues 1-423 are well defined; also called WT MalT; MalT WT; source: E. coli BL21 (DE3) ΔmalT220, purified (Ni Sepharose, gel filtration)
B2: MalT-R9S, N-terminally His-tagged (natural protein, Escherichia coli, UniProt P06993 1-901, looked up)
chain: B1 chain with R9S
notes: MalT of Escherichia coli, variant of plasmid pOM206 made by site-directed mutagenesis; source: E. coli BL21 (DE3) ΔmalT220, purified (Ni Sepharose, gel filtration)
B3: MalT-S8A, N-terminally His-tagged (natural protein, Escherichia coli, UniProt P06993 1-901, looked up)
chain: B1 chain with S8A
notes: as for B2
B4: MalT-S5L, N-terminally His-tagged (natural protein, Escherichia coli, UniProt P06993 1-901, looked up)
chain: B1 chain with S5L
notes: as for B2
B5: MalT-R143A, N-terminally His-tagged (natural protein, Escherichia coli, UniProt P06993 1-901, looked up)
chain: B1 chain with R143A
notes: as for B2
B6: MalY (wild type), GST tag removed (enzyme, Escherichia coli, UniProt P23256 1-390, looked up)
chain: MFDFSKVVDRHGTWCTQWDYVADRFGTADLLPFTISDMDFATAPCIIEALNQRLMHGVFGYSRWKNDEFLAAIAHWFSTQHYTAIDSQTVVYGPSVIYMVSELIRQWSETGEGVVIHTPAYDAFYKAIEGNQRTVMPVALEKQADGWFCDMGKLEAVLAKPECKIMLLCSPQNPTGKVWTCDELEIMADLCERHGVRVISDEIHMDMVWGEQPHIPWSNVARGDWALLTSGSKSFNIPALTGAYGIIENSSSRDAYLSALKGRDGLSSPSVLALTAHIAAYQQGAPWLDALRIYLKDNLTYIADKMNAAFPELNWQIPQSTYLAWLDLRPLNIDDNALQKALIEQEKVAIMPGYTYGEEGRGFVRLNAGCPRSKLEKGVAGLINAIRAVR
notes: MalY, PLP-dependent dimeric enzyme of E. coli; full-length malY amplified from E. coli genomic DNA, cloned in pGEX-6P-1; the printed mass of 2 × 43.5 kDa fits the untagged protein; Each subunit holds the cofactor PLP; also called MalY WT; source: E. coli BL21 (DE3) ΔmalT220, purified (Glutathione Sepharose, gel filtration); not shown: GST, N-terminal, cleaved
B7: MalT-R173A, N-terminally His-tagged (natural protein, Escherichia coli, UniProt P06993 1-901, looked up)
chain: B1 chain with R173A
notes: as for B2

What was measured:
[1] = molecular target: ADP; assay: luciferase assay of protein-bound nucleotide; parameters: unit not given here; conditions: parent: est. 98; read off a plot
[2] = molecular target: ATP; assay: luciferase assay of protein-bound nucleotide; parameters: unit not given here; conditions: parent: est. 0; read off a plot
[3] = molecular target: B6; assay: cryo-EM structure; purified MalT-MalY complex at about 0.5 mg/ml, ADP and PLP bound; 2.94 Å, C2 symmetry; conditions: both partners purified
[4] = molecular target: the molecule itself; assay: SEC; Superdex 200 Increase 10/300 GL, in the presence of 1 mM maltotriose and 0.1 mM ADP; same molar amounts of MalT and MalY WT or MalY-D182A/E185A/S218A, separately or together; fractions on SDS-PAGE
[5] = molecular target: the molecule itself; assay: SEC; Superose 6 Increase 10/300 GL, 4 °C; MalT pre-incubated at 20 °C for 20 min in buffer I; run in buffer E with 1 mM maltotriose and 0.4 mM ATP; self-association of MalT
[6] = molecular target: B1; assay: SEC; Superdex 200 Increase 10/300 GL, 4 °C, in the presence of ADP; MalT (buffer A, 0.1 mM ADP) and MalY (buffer TKCl, 10 μM PLP) each alone, or incubated at a 1:1 molar ratio on ice for 30 min and run in buffer TKCl with 0.1 mM ADP and 10 μM PLP; conditions: both partners purified
[7] = molecular target: the molecule itself; assay: as above

Q: What does the source list for “MalT (wild type), N-terminally His-tagged (from UniProt P06993) R19A”?
A: other: Nucleotide content [1]: 28; other: Nucleotide content [2]: 7.5

Q: For “MalT (wild type), N-terminally His-tagged (from UniProt P06993) K6A”, which other: Nucleotide content [1] is on record?
A: Its other: Nucleotide content is 13.

Q: What about the other: Nucleotide content [2] of the same molecule?
A: The other: Nucleotide content was 58.

Q: Which “stoichiometry N” value [3] does the source give for B1 here?
A: Its value is 1 MalT per MalY (printed as 2:2).

Q: Does B1 bind [4]?
A: Result: binds

Q: Does B2 bind [5]?
A: Result: binds

Q: Does B3 bind [5]?
A: Result: binds

Q: Does B4 bind [5]?
A: Result: binds

Q: Does B5 bind [5]?
A: Result: binds

Q: Which results are given for B6?
A: binding result [6]: binds; stoichiometry N [7]: 2

Q: Does B7 bind [5]?
A: Result: binds

From PMC10427625, “Structural basis for negative regulation of the Escherichia coli maltose system” (Nature Communications, 2023)
